Experimental data from US9498540B2, “Cell proliferation inhibitors and conjugates thereof” (NOVARTIS AG, priority 2013, dated 2016).

Key:
[1] = Aggregation of immunoconjugates by analytical size exclusion chromatography; format: physicochemical; settings: conjugate with trastuzumab (TBS); Superdex 200 5/150 GL run in PBS
Experimental: Aggregation was measured by analytical size exclusion chromatography (Superdex 200 5/150 GL run in PBS). It was observed that the extent of aggregation depends on the Linker-Payload and the DAR. […] Table 4 also indicates whether the linking group for each conjugate is stable or cleavable.

[2] = Average drug loading (DAR, drug to antibody ratio) from LC/MS of reduced, deglycosylated conjugates; settings: conjugate with trastuzumab (TBS); average number of payload molecules per antibody
Description: The immunoconjugates prepared as described above were characterized by LC/MS, as illustrated in FIG. 1 for one immunoconjugate. […] The conjugates were characterized in terms of average drug loading for a sample (DAR, drug to antibody ratio) and aggregation (expressed in %).
The DAR value is extrapolated from LC-MS data for reduced and deglycosylated samples. […] HPLC separates the antibody into light and heavy chains, and separates the heavy chain (HC) and light chain (LC) according to the number of Linker-Payload groups per chain. Mass spectral data enables identification of the component species in the mixture, e.g., LC, LC+1, LC+2, HC, HC+1, HC+2, etc. From the average loading on the LC and HC chains, the average drug to antibody ratio (DAR) can be calculated for an ADC (see FIG. 1B). The DAR for a given conjugate sample represents the average number of drug (payload) molecules attached to a tetrameric antibody containing two light chains and two heavy chains.

Row | Compound | Aggregation % [1] | DAR [2]
1 | CC(C)(C)[C@H](c1nc(-c2cc(F)ccc2F)nn1Cc1ccccc1)N(CC[C@H](N)CF)C(=O)N1CCSCC1 [Compound 10] | 47% | 5
2 | C[C@H](O)C(=O)N(C[C@@H]1CNC[C@@H]1F)[C@@H](c1nc(-c2cc(F)ccc2F)cn1Cc1ccccc1)C1CCOCC1 [Compound 12] | 4.7% | 5
3 | C[C@H](O)C(=O)N(CC[C@@H](N)CF)[C@@H](c1nc(-c2cc(F)ccc2F)nn1Cc1ccccc1)C(C)(C)C [Compound 8] | 1.4% | 3.2
4 | CC(C)(C)[C@H](c1nc(-c2cc(F)ccc2F)cn1Cc1ccccc1)N(CC[C@H]1COCCN1)C(=O)c1cccnc1 [Compound 36] | 40% | 2.6
5 | CC(C)(C)[C@H](c1nc(-c2cc(F)ccc2F)nn1Cc1ccccc1)N(CCCN)C(=O)CO [Compound 50] | 40% | 2.8
6 | NCCCCCCSCC(=O)N(C[C@@H]1CNC[C@@H]1F)[C@@H](c1nc(-c2cc(F)ccc2F)cn1Cc1ccccc1)C1CCOCC1 [Compound 57] | 57% | 5
7 | CC(C)(C)[C@H](c1nc(-c2cc(F)ccc2F)nn1Cc1ccccc1)N(CCCN)C(=O)N1CCC[C@H]1CO [Compound 28] | 63.6% | 3.6
8 | O=C(NC[C@@H](O)CO)N(C[C@@H]1CNC[C@@H]1F)[C@@H](c1nc(-c2cc(F)ccc2F)cn1Cc1ccccc1)C1CCOCC1 [Compound 68] | 62.6% | 4.6
9 | O=C([C@@H]1CNCCO1)N(C[C@@H]1CNC[C@@H]1F)[C@@H](c1nc(-c2cc(F)ccc2F)cn1Cc1ccccc1)C1CCOCC1 [Compound 70] | 16.9% | 6.5
10 | CC(C)(C)[C@H](c1nc(-c2cc(F)ccc2F)cn1Cc1cccc(F)c1)N(C[C@@H]1CNC[C@@H]1F)C(=O)CCS [Compound 67] | 63.2% | 3.4
11 | CC(C)(C)[C@H](c1nc(-c2cc(F)ccc2F)cn1Cc1ccccc1)N(CC[C@H](N)CF)C(=O)CN [Compound 1] | 75.8% | 5
12 | C[C@H](O)C(=O)N(C[C@@H]1CNC[C@@H]1F)[C@@H](c1nc(-c2cc(F)ccc2F)cn1Cc1cccc(N)n1)C1CCOCC1 [Compound 66] | 64.5% | 3.6
13 | COC(C)(C)[C@H](c1nc(-c2cc(Cl)ccc2F)cn1Cc1cccc(F)c1)N(C[C@@H]1CN[C@H](CF)C1)C(=O)c1cc(C)nn1C [Compound 59] | 71% | 5.2
14 | N[C@H](CF)CCN(C(=O)CO)[C@@H](c1nc(-c2cc(F)ccc2F)cn1Cc1ccccc1)C1CCOCC1 [Compound 23] | 66.8% | 3.1
15 | C[C@H](O)C(=O)N(CC[C@@H](N)CF)[C@@H](c1nc(-c2cc(F)ccc2F)cn1Cc1ccccc1)C(C)(C)C [Compound 29] | 2.9% | 2.8
16 | C[C@H](O)C(=O)N(CC[C@@H](C)N)[C@@H](c1nc(-c2cc(F)ccc2F)cn1Cc1ccccc1)C(C)(C)C [Compound 35] | 44.3% | 3
17 | C[C@H](O)C(=O)N(CC[C@H](N)CF)[C@@H](c1nc(-c2cc(F)ccc2F)cn1CC1(C)COC1)C(C)(C)C [Compound 34] | 50.5% | 4.4
18 | CC(C)(C)[C@H](c1nc(-c2cc(F)ccc2F)cn1Cc1ccccc1)N(CCC1(N)CC1)C(=O)[C@@H]1CCCO1 [Compound 30] | 2.5% | 3.9
19 | C[C@H](O)C(=O)N(C[C@@H]1CNC[C@@H]1F)[C@H](c1nc(-c2cc(F)ccc2F)cn1Cc1ccccc1)C1CCS(=O)(=O)CC1 [Compound 47] | 65.2% | 5.1
20 | O=C(c1ccccn1)N(C[C@@H]1CN[C@H](CF)C1)[C@@H](c1nc(-c2cc(F)ccc2F)cn1Cc1ccccc1)C1CCOCC1 [Compound 65] | 11.4% | 3.2
21 | C[C@@H]1CN(C(=O)N(CCCN)[C@@H](c2nc(-c3cc(F)ccc3F)nn2Cc2ccccc2)C(C)(C)C)C[C@H](C)O1 [Compound 3] | 52.5% | 5.4
22 | C[C@H](O)C(=O)N(CC[C@H](N)CF)[C@H](c1nc(-c2cc(F)ccc2F)cn1Cc1ccccc1)C1CCS(=O)(=O)CC1 [Compound 24] | 54.2% | 1.2
23 | CC(C)(C)[C@@H](NC(=O)c1csc(CN)n1)c1nc(-c2cc(F)ccc2F)cn1Cc1ccccc1 [Compound 45] | 22% | 4.8
24 | COC(C)(C)[C@H](c1nc(-c2cc(F)ccc2F)cn1Cc1cccc(F)c1)N(C[C@@H]1CNC[C@@H]1F)C(=O)[C@H](C)O [Compound 54] | 2.5% | 3.1

Row | Compound | Aggregation % [1] | DAR [2]
25 | CC(C)(C)[C@H](c1nc(-c2cc(F)ccc2F)nn1Cc1ccccc1)N(CCCN)C(=O)c1cccnc1 [Compound 64] | 49.3% | 2.9
26 | CC(C)(C)[C@H](c1nc(-c2cc(F)ccc2F)cn1Cc1ccccc1)N(CC[C@H]1COCCN1)C(=O)CO [Compound 5] | 48.7% | 5.4
27 | COC(C)(C)[C@H](c1nc(-c2cc(Cl)ccc2F)cn1Cc1cccc(F)c1)N(C[C@@H]1CN[C@H](CF)C1)C(=O)[C@@H]1CCCO1 [Compound 13] | 0.7% | 5.8
28 | CC(C)(C)[C@H](c1nc(-c2cc(F)ccc2F)cn1Cc1cccc(F)c1)N(C[C@@H]1CNC[C@@H]1F)C(=O)COCCN [Compound 76] | 48.5% | 3.1
29 | C[C@H](O)C(=O)N(CC[C@H](N)CF)[C@@H](c1nc(-c2cc(F)ccc2F)cn1Cc1cccc(F)c1)C(C)(C)C [Compound 73] | 60% | 4.5
30 | C[C@H](O)C(=O)N(CC[C@H](N)CF)[C@@H](c1nc(-c2cc(F)ccc2F)cn1Cc1ccccc1)C1CCOCC1 [Compound 46] | 74.1% | 4.7
31 | CNC(=O)N(CC[C@H]1COCCN1)[C@@H](c1nc(-c2cc(F)ccc2F)cn1Cc1ccccc1)C(C)(C)C [Compound 4] | 72.9% | 4.8
32 | C[C@H](O)C(=O)N(CCCN)[C@@H](c1nc(-c2cc(F)ccc2F)nn1Cc1ccccc1)C(C)(C)C [Compound 7] | 44.4% | 2.7
33 | C[C@H](O)C(=O)N(C[C@H]1CNC[C@H]1F)[C@@H](c1nc(-c2cc(F)ccc2F)cn1Cc1ccccc1)C1CCOCC1 [Compound 53] | 25.7% | 2.7
34 | C[C@@H]1CN(C(=O)N(C[C@@H]2CNC[C@@H]2F)[C@@H](c2nc(-c3cc(F)ccc3F)nn2Cc2cccc(F)c2)C(C)(C)C)C[C@H](C)O1 [Compound 26] | 33.5% | 2.6
35 | CC(C)(C)[C@H](c1nc(-c2cc(F)ccc2F)cn1Cc1ccccc1)N(CC[C@H]1COCCN1)C(=O)N1CCOCC1 [Compound 63] | 53.2% | 4
36 | NCCSCC(=O)N(C[C@@H]1CNC[C@@H]1F)[C@@H](c1nc(-c2cc(F)ccc2F)cn1Cc1ccccc1)C1CCOCC1 [Compound 18] | 58.4% | 3
37 | CC(C)(C)[C@H](c1nc(-c2cc(F)ccc2F)cn1Cc1cccc(F)c1)N(C[C@@H]1CNC[C@@H]1F)C(=O)CSCCN [Compound 16] | 20.4% | 7.4
38 | C[C@H](O)C(=O)N(CC[C@H](N)CF)[C@@H](c1nc(-c2cc(F)ccc2F)cn1CC1CCOCC1)C(C)(C)C [Compound 11] | 4% | 4
39 | CCOC(C)(C)[C@H](c1nc(-c2cc(F)ccc2F)cn1Cc1cccc(F)c1)N(C[C@@H]1CNC[C@@H]1F)C(=O)[C@H](C)O [Compound 75] | 69.4% | 2.9
40 | O=C(NCCO)N(C[C@@H]1CNC[C@@H]1F)[C@@H](c1nc(-c2cc(F)ccc2F)cn1Cc1ccccc1)C1CCOCC1 [Compound 58] | 59.4% | 5.3
41 | CC(C)(C)[C@H](c1nc(-c2cc(F)ccc2F)cn1Cc1ccccc1)N(CC[C@H](N)CF)C(=O)CO[C@@H]1O[C@H](C(=O)O)[C@@H](O)[C@H](O)[C@H]1O [Compound 55] | 11.5% | 3.8
42 | CC(C)(C)OC(=O)N1C[C@@H](CN(C(=O)CI)[C@@H](c2nc(-c3cc(F)ccc3F)cn2Cc2cccc(F)c2)C(C)(C)C)[C@@H](F)C1 [Compound 31] | 10.6% | 5.8
43 | CC(C)(C)[C@H](c1nc(-c2cc(F)ccc2F)cn1Cc1ccccc1)N(C[C@@H](F)CN)C(=O)N1CCN(S(C)(=O)=O)CC1 [Compound 21] | 39.7% | 4.7
44 | CC(C)(C)[C@H](c1nc(-c2cc(F)ccc2F)cn1Cc1ccccc1)N(CC[C@H](N)CF)C(=O)NO [Compound 22] | 84.5% | 6
45 | C[C@H](O)C(=O)N(CCCN)[C@@H](c1nc(-c2cc(F)ccc2F)cn1Cc1ccccc1)C(C)(C)C [Compound 20] | 63.5% | 5.2
46 | CC(C)(C)[C@H](c1nc(-c2cc(F)ccc2F)cn1Cc1ccccc1)N(CC[C@@H]1COCCN1)C(=O)CO [Compound 6] | 67.2% | 3
47 | O=C(NC[C@H](O)CO)N(C[C@@H]1CNC[C@@H]1F)[C@@H](c1nc(-c2cc(F)ccc2F)cn1Cc1ccccc1)C1CCOCC1 [Compound 74] | 39.1% | 3
